From patent US20170210787A1

Columns and labels:
[1] = biological target: ptau 187-212 (pY197, pT205 by the sequence printed in Table 11) (human); assay: peptide ELISA, 2 ug/mL
[2] = biological target: ptau 187-212 (pS202, pT205 by the sequence printed in Table 22) (human); assay: Ala-scan peptide ELISA, 1 ug/mL

Sequence of CBTAU-7.1 (antibody) (VH): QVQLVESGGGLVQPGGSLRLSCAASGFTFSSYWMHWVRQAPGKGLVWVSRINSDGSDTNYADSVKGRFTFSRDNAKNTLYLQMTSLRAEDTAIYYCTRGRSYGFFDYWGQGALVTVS
Sequence of CBTAU-7.1 (antibody) (VL): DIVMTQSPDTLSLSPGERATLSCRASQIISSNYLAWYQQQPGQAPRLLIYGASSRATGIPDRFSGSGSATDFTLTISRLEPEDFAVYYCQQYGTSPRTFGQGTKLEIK

OD450 [1]: 0.5 to 1 od
OD450 [2]: > 1.5 od
Substance: CBTAU-7.1 (antibody)
